Measurements from patent publication US20030118612A1 (MAXYGEN, published 2003).

T1: human G-CSF receptor (human, UniProt Q99062 25-836)
T1 sequence (looked up): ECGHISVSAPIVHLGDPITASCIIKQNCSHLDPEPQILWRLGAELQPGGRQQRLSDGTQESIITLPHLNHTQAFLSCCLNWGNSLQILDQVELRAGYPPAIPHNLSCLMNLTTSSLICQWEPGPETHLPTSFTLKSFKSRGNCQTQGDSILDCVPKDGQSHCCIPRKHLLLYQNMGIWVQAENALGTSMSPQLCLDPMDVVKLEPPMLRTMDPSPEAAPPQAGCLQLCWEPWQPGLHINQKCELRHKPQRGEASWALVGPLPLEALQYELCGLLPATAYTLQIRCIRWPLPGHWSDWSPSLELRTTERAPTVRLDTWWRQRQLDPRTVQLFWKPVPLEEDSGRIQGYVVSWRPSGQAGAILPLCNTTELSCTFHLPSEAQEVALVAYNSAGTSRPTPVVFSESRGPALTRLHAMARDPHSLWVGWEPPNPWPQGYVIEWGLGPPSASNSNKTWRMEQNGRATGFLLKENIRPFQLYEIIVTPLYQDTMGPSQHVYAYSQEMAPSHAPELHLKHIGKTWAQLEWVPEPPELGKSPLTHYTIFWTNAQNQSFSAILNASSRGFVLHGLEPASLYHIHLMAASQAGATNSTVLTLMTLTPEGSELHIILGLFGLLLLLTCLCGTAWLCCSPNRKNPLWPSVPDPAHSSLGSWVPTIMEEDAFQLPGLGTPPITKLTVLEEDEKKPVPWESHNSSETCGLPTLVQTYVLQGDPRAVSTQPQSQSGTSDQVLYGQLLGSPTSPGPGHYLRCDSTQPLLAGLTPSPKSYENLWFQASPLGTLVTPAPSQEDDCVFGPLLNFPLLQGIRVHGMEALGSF


Target: T1, human G-CSF receptor
Test: cell-based or functional assay

EC50 (% of hG-CSF) non-conjugated	EC50 (% of hG-CSF) conjugated to SPA-PEG 5000	Binder
50 % of hG-CSF	–	G-CSF variant K16/23/40R, non-conjugated (ligand) TPLGPASSLPQSFLLRCLEQVRRIQGDGAALQEKLCATYRLCHPEELVLLGHSLGIPWAPLSSCPSQALQLAGCLSQLHSGLFLYQGLLQALEGISPELGPTLDTLQLDVADFATTIWQQMEELGMAPALQPTQGAMPAFASAFQRRAGGVLVASHLQSFLEVSYRVLRHLAQP
–	5 % of hG-CSF	G-CSF variant K16/23/40R conjugated to SPA-PEG 5000 (ligand, SPA-PEG 5000 conjugated to the available PEGylation sites) TPLGPASSLPQSFLLRCLEQVRRIQGDGAALQEKLCATYRLCHPEELVLLGHSLGIPWAPLSSCPSQALQLAGCLSQLHSGLFLYQGLLQALEGISPELGPTLDTLQLDVADFATTIWQQMEELGMAPALQPTQGAMPAFASAFQRRAGGVLVASHLQSFLEVSYRVLRHLAQP
–	0.1 % of hG-CSF	G-CSF without N-terminal Histidine tag conjugated to SPA-PEG 5000 (ligand, SPA-PEG 5000 conjugated to the available PEGylation sites) TPLGPASSLPQSFLLKCLEQVRKIQGDGAALQEKLCATYKLCHPEELVLLGHSLGIPWAPLSSCPSQALQLAGCLSQLHSGLFLYQGLLQALEGISPELGPTLDTLQLDVADFATTIWQQMEELGMAPALQPTQGAMPAFASAFQRRAGGVLVASHLQSFLEVSYRVLRHLAQP
50 % of hG-CSF	–	G-CSF variant K16/34/40R L3K, non-conjugated (ligand) TPKGPASSLPQSFLLRCLEQVRKIQGDGAALQERLCATYRLCHPEELVLLGHSLGIPWAPLSSCPSQALQLAGCLSQLHSGLFLYQGLLQALEGISPELGPTLDTLQLDVADFATTIWQQMEELGMAPALQPTQGAMPAFASAFQRRAGGVLVASHLQSFLEVSYRVLRHLAQP
–	25 % of hG-CSF	G-CSF variant K16/34/40R L3K conjugated to SPA-PEG 5000 (ligand, SPA-PEG 5000 conjugated to the available PEGylation sites) TPKGPASSLPQSFLLRCLEQVRKIQGDGAALQERLCATYRLCHPEELVLLGHSLGIPWAPLSSCPSQALQLAGCLSQLHSGLFLYQGLLQALEGISPELGPTLDTLQLDVADFATTIWQQMEELGMAPALQPTQGAMPAFASAFQRRAGGVLVASHLQSFLEVSYRVLRHLAQP
–	30 % of hG-CSF	G-CSF variant K16/34/40R conjugated to SPA-PEG 5000 (ligand, SPA-PEG 5000 conjugated to the available PEGylation sites) TPLGPASSLPQSFLLRCLEQVRKIQGDGAALQERLCATYRLCHPEELVLLGHSLGIPWAPLSSCPSQALQLAGCLSQLHSGLFLYQGLLQALEGISPELGPTLDTLQLDVADFATTIWQQMEELGMAPALQPTQGAMPAFASAFQRRAGGVLVASHLQSFLEVSYRVLRHLAQP
20 % of hG-CSF	–	G-CSF variant K16/23/34/40R, non-conjugated (ligand) TPLGPASSLPQSFLLRCLEQVRRIQGDGAALQERLCATYRLCHPEELVLLGHSLGIPWAPLSSCPSQALQLAGCLSQLHSGLFLYQGLLQALEGISPELGPTLDTLQLDVADFATTIWQQMEELGMAPALQPTQGAMPAFASAFQRRAGGVLVASHLQSFLEVSYRVLRHLAQP
10 % of hG-CSF	–	G-CSF variant K16/34/40R E46K, non-conjugated (ligand) TPLGPASSLPQSFLLRCLEQVRKIQGDGAALQERLCATYRLCHPEKLVLLGHSLGIPWAPLSSCPSQALQLAGCLSQLHSGLFLYQGLLQALEGISPELGPTLDTLQLDVADFATTIWQQMEELGMAPALQPTQGAMPAFASAFQRRAGGVLVASHLQSFLEVSYRVLRHLAQP
35 % of hG-CSF	–	G-CSF variant K16/34/40R, non-conjugated (ligand) TPLGPASSLPQSFLLRCLEQVRKIQGDGAALQERLCATYRLCHPEELVLLGHSLGIPWAPLSSCPSQALQLAGCLSQLHSGLFLYQGLLQALEGISPELGPTLDTLQLDVADFATTIWQQMEELGMAPALQPTQGAMPAFASAFQRRAGGVLVASHLQSFLEVSYRVLRHLAQP
–	15 % of hG-CSF	G-CSF variant K16/23/34/40R conjugated to SPA-PEG 5000 (ligand, SPA-PEG 5000 conjugated to the available PEGylation sites) TPLGPASSLPQSFLLRCLEQVRRIQGDGAALQERLCATYRLCHPEELVLLGHSLGIPWAPLSSCPSQALQLAGCLSQLHSGLFLYQGLLQALEGISPELGPTLDTLQLDVADFATTIWQQMEELGMAPALQPTQGAMPAFASAFQRRAGGVLVASHLQSFLEVSYRVLRHLAQP
